Assay results published in publication PMC10470860.

What was measured:
[1] = system: RFTS-containing DNMT1 A554V (human); experiment: fluorescence polarization; details: 5-methylcytosine on one strand (hemimethylated), 100 nM DNA, 28 °C, triplicate, hyperbolic fit, buffer, salt and pH not given (as in ref [25])
[2] = system: RFTS-containing DNMT1 wild-type (human); experiment: fluorescence polarization; details: 5-methylcytosine on one strand (hemimethylated), 100 nM DNA, 28 °C, triplicate, hyperbolic fit, buffer, salt and pH not given (as in ref [25])

Substance: 18 bp hemimethylated duplex DNA
- Kd [1]: 0.55 µM
- Kd [2]: 4.6 µM
